B1: light2 (peptide)
peptide: Ac-ECGEEVVVRVLDERLVRLRDGTRSYFGAFCV-NH2
modifications: disulfide 2-30
SMILES: CC(=O)N[C@@H](CCC(=O)O)C(=O)N[C@H]1CSSC[C@@H](C(=O)N[C@H](C(N)=O)C(C)C)NC(=O)[C@H](Cc2ccccc2)NC(=O)[C@H](C)NC(=O)CNC(=O)[C@H](Cc2ccccc2)NC(=O)[C@H](Cc2ccc(O)cc2)NC(=O)[C@H](CO)NC(=O)[C@H](CCCNC(=N)N)NC(=O)[C@H]([C@@H](C)O)NC(=O)CNC(=O)[C@H](CC(=O)O)NC(=O)[C@H](CCCNC(=N)N)NC(=O)[C@H](CC(C)C)NC(=O)[C@H](CCCNC(=N)N)NC(=O)[C@H](C(C)C)NC(=O)[C@H](CC(C)C)NC(=O)[C@H](CCCNC(=N)N)NC(=O)[C@H](CCC(=O)O)NC(=O)[C@H](CC(=O)O)NC(=O)[C@H](CC(C)C)NC(=O)[C@H](C(C)C)NC(=O)[C@H](CCCNC(=N)N)NC(=O)[C@H](C(C)C)NC(=O)[C@H](C(C)C)NC(=O)[C@H](C(C)C)NC(=O)[C@H](CCC(=O)O)NC(=O)[C@H](CCC(=O)O)NC(=O)CNC1=O
notes: Fragment 210-240 of LIGHT with two residues substituted by cysteines for a disulfide bond; also called peptide 2; source: synthetic peptide (SPPS, RP-HPLC; disulfide bond formed by air oxidation)
B2: light1 (peptide)
peptide: Ac-EAGEEVVCRVLDERLVRLRDGTRSYCGAF[Nle]V-NH2
modifications: disulfide 8-26
SMILES: CCCC[C@H](NC(=O)[C@H](Cc1ccccc1)NC(=O)[C@H](C)NC(=O)CNC(=O)[C@@H]1CSSC[C@H](NC(=O)[C@@H](NC(=O)[C@@H](NC(=O)[C@H](CCC(=O)O)NC(=O)[C@H](CCC(=O)O)NC(=O)CNC(=O)[C@H](C)NC(=O)[C@H](CCC(=O)O)NC(C)=O)C(C)C)C(C)C)C(=O)N[C@@H](CCCNC(=N)N)C(=O)N[C@@H](C(C)C)C(=O)N[C@@H](CC(C)C)C(=O)N[C@@H](CC(=O)O)C(=O)N[C@@H](CCC(=O)O)C(=O)N[C@@H](CCCNC(=N)N)C(=O)N[C@@H](CC(C)C)C(=O)N[C@@H](C(C)C)C(=O)N[C@@H](CCCNC(=N)N)C(=O)N[C@@H](CC(C)C)C(=O)N[C@@H](CCCNC(=N)N)C(=O)N[C@@H](CC(=O)O)C(=O)NCC(=O)N[C@@H]([C@@H](C)O)C(=O)N[C@@H](CCCNC(=N)N)C(=O)N[C@@H](CO)C(=O)N[C@@H](Cc2ccc(O)cc2)C(=O)N1)C(=O)N[C@H](C(N)=O)C(C)C
notes: Fragment 210-240 of LIGHT with two residues substituted by cysteines for a disulfide bond; the synthesized peptide has norleucine there; also called peptide 1; source: synthetic peptide (SPPS, RP-HPLC; disulfide bond formed by air oxidation)
B3: light3 (peptide)
peptide: Ac-TCTHGLYKRTPRYPEELELLVSQCS-NH2
modifications: disulfide 2-24
SMILES: CC(=O)N[C@H](C(=O)N[C@H]1CSSC[C@@H](C(=O)N[C@@H](CO)C(N)=O)NC(=O)[C@H](CCC(N)=O)NC(=O)[C@H](CO)NC(=O)[C@H](C(C)C)NC(=O)[C@H](CC(C)C)NC(=O)[C@H](CC(C)C)NC(=O)[C@H](CCC(=O)O)NC(=O)[C@H](CC(C)C)NC(=O)[C@H](CCC(=O)O)NC(=O)[C@H](CCC(=O)O)NC(=O)[C@@H]2CCCN2C(=O)[C@H](Cc2ccc(O)cc2)NC(=O)[C@H](CCCNC(=N)N)NC(=O)[C@@H]2CCCN2C(=O)[C@H]([C@@H](C)O)NC(=O)[C@H](CCCNC(=N)N)NC(=O)[C@H](CCCCN)NC(=O)[C@H](Cc2ccc(O)cc2)NC(=O)[C@H](CC(C)C)NC(=O)CNC(=O)[C@H](Cc2c[nH]cn2)NC(=O)[C@H]([C@@H](C)O)NC1=O)[C@@H](C)O
notes: Residues 161-185 of LIGHT with two residues substituted by cysteines for a disulfide bond; also called peptide 3; source: synthetic peptide (SPPS, RP-HPLC; disulfide bond formed by air oxidation)
B4: light3_E178L (peptide)
peptide: Ac-TCTHGLYKRTPRYPEELLLLVSQCS-NH2
modifications: disulfide 2-24
SMILES: CC(=O)N[C@H](C(=O)N[C@H]1CSSC[C@@H](C(=O)N[C@@H](CO)C(N)=O)NC(=O)[C@H](CCC(N)=O)NC(=O)[C@H](CO)NC(=O)[C@H](C(C)C)NC(=O)[C@H](CC(C)C)NC(=O)[C@H](CC(C)C)NC(=O)[C@H](CC(C)C)NC(=O)[C@H](CC(C)C)NC(=O)[C@H](CCC(=O)O)NC(=O)[C@H](CCC(=O)O)NC(=O)[C@@H]2CCCN2C(=O)[C@H](Cc2ccc(O)cc2)NC(=O)[C@H](CCCNC(=N)N)NC(=O)[C@@H]2CCCN2C(=O)[C@H]([C@@H](C)O)NC(=O)[C@H](CCCNC(=N)N)NC(=O)[C@H](CCCCN)NC(=O)[C@H](Cc2ccc(O)cc2)NC(=O)[C@H](CC(C)C)NC(=O)CNC(=O)[C@H](Cc2c[nH]cn2)NC(=O)[C@H]([C@@H](C)O)NC1=O)[C@@H](C)O
notes: Analogue of light3 (residues 161-185 of LIGHT with two cysteines for a disulfide bond) in which glutamic acid 178 was replaced by leucine; source: synthetic peptide (SPPS, RP-HPLC; disulfide bond formed by air oxidation)
B5: light4 (peptide)
peptide: Ac-TICHGLYKRTPRYPEELELLVSCQS-NH2
modifications: disulfide 3-23
SMILES: CC[C@H](C)[C@H](NC(=O)[C@@H](NC(C)=O)[C@@H](C)O)C(=O)N[C@H]1CSSC[C@@H](C(=O)N[C@@H](CCC(N)=O)C(=O)N[C@@H](CO)C(N)=O)NC(=O)[C@H](CO)NC(=O)[C@H](C(C)C)NC(=O)[C@H](CC(C)C)NC(=O)[C@H](CC(C)C)NC(=O)[C@H](CCC(=O)O)NC(=O)[C@H](CC(C)C)NC(=O)[C@H](CCC(=O)O)NC(=O)[C@H](CCC(=O)O)NC(=O)[C@@H]2CCCN2C(=O)[C@H](Cc2ccc(O)cc2)NC(=O)[C@H](CCCNC(=N)N)NC(=O)[C@@H]2CCCN2C(=O)[C@H]([C@@H](C)O)NC(=O)[C@H](CCCNC(=N)N)NC(=O)[C@H](CCCCN)NC(=O)[C@H](Cc2ccc(O)cc2)NC(=O)[C@H](CC(C)C)NC(=O)CNC(=O)[C@H](Cc2c[nH]cn2)NC1=O
notes: Residues 161-185 of LIGHT with two residues substituted by cysteines for a disulfide bond; also called peptide 4; source: synthetic peptide (SPPS, RP-HPLC; disulfide bond formed by air oxidation)

Positions of bridges follow the written chain, without caps; N, C: chain ends. Non-standard residues stand in square brackets, D forms with d. Residues, ends and D or L forms follow the SMILES beside them. Nle = CCCC[C@H](N)C(=O)O

In the first experiment the test system is HVEM/LIGHT complex. Description: Competitive ELISA, inhibition of HVEM/LIGHT complex formation. Particulars: across all tested concentrations (50, 12.5, 3.125 µM). It is filed as biochemical, human. Here is the method:
To assess the inhibitory properties of the peptides the ELISA was conducted. Based on the obtained results, it can be concluded that the inhibitory properties of the peptides are strongly correlated with their affinity to HVEM as determined by theoretical methods, as well as with those measured by SpS.
ELISA was conducted using transparent polystyrene 96-well plates (Brand, Wertheim, Germany). Wells were coated with HVEM-His protein at concentration 6 µg/mL dissolved in PBS-T (100 µL per well) and incubated overnight at 4 °C. Unbound sites on the wells by HVEM were blocked with 5% bovine serum albumin (BSA) in PBS-T (200 µL per well). Peptides at three concentrations 50 µM, 12.5 µM, and 3.125 µM dissolved in PBS-T were added and incubated (200 µL per well). […] In the next step horseradish peroxidase (HRP)-conjugated goat antibody (Bio-Rad, Hercules, USA) at dilution 1:3000 in PBS-T (100µL per well) was applied. After each step, wells were washed five times with 200 µL of PBS-T. Incubations were carried out at 37 °C for 2 h, except for the antibody, which was incubated for 1 h. Finally, 200 µL of TMB substrate (Thermo Fisher Scientific,Waltham, MA, USA) was added, and after 15 min of incubation in the dark, absorbance was measured at 492 nm and 650 nm using an Infinite M200 Pro reader (Tecan, Switzerland). The negative control consisted of PBS-T buffer without peptides, while the positive control was mouse anti-human HVEM antibodies (1 µg/well, Bio-Rad, Hercules, CA, USA; #MCA6072GA). Each experiment was performed in three biological replicates, each consisting of three technical replicates and data were analyzed using one-way ANOVA with Dunnett’s post-hoc test in GraphPad Prism (San Diego, USA).
Background: ELISA stands for enzyme-linked immunosorbent assay.
Turning to `CC[C@H](C)[C@H](NC(=O)[C@@H](NC(C)=O)[C@@H](C)O)C(=O)N[C@H]1CSSC[C@@H](C(=O)N[C@@H](CCC(N)=O)C(=O)N[C@@H](CO)C(N)=O)NC(=O)[C@H](CO)NC(=O)[C@H](C(C)C)NC(=O)[C@H](CC(C)C)NC(=O)[C@H](CC(C)C)NC(=O)[C@H](CCC(=O)O)NC(=O)[C@H](CC(C)C)NC(=O)[C@H](CCC(=O)O)NC(=O)[C@H](CCC(=O)O)NC(=O)[C@@H]2CCCN2C(=O)[C@H](Cc2ccc(O)cc2)NC(=O)[C@H](CCCNC(=N)N)NC(=O)[C@@H]2CCCN2C(=O)[C@H]([C@@H](C)O)NC(=O)[C@H](CCCNC(=N)N)NC(=O)[C@H](CCCCN)NC(=O)[C@H](Cc2ccc(O)cc2)NC(=O)[C@H](CC(C)C)NC(=O)CNC(=O)[C@H](Cc2c[nH]cn2)NC1=O` [light4] (Ac-TICHGLYKRTPRYPEELELLVSCQS-NH2; disulfide 3-23), the “inhibition of HVEM/LIGHT complex formation” value is on record as “below 10%”.

For a further experiment, the target named is T1, HVEM-His protein (UniProt Q92956 39-202, labelled with RED-tris-NTA 2nd Generation dye on the His tag (spectral shift only)).
T1 construct: Herpes virus entry mediator (HVEM); No catalogue number printed; also called herpes virus entry mediator; source: bought: ACROBiosystems
T1 sequence (looked up): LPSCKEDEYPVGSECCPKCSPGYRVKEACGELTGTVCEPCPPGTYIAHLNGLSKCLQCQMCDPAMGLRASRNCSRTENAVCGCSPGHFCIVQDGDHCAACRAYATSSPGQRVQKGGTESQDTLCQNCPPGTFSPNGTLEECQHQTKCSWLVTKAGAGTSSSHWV
Description: spectral shift (SpS); Monolith X; HVEM-His labelled with His-Tag Labeling Kit RED-tris-NTA 2nd Generation, final 50 nM; peptides 2 µM to 6.1 pM; PBS-T (0.05% Tween-20, 0.3 M NaCl, pH 7.4); fluorescence ratio 670/650 nm; 25 °C; apparent Kd (peptides aggregated at higher concentrations). The following applies: both partners purified.
B1: the Kd was 1380 nM.

B2: the Kd worked out at 1680 nM.

Consider B3, for which the Kd is 580 nM.

In the case of B4, the Kd worked out at 710 nM.

B5: the Kd amounted to 1720 nM.

For the origin of these results see PMC12623744 (Scientific Reports, 2025).
